Test results published in PMC8489946 (RNA Biology, 2021).

Molecular target: T1, upf1-DE572AA-GFP (S. cerevisiae, UniProt P30771 1-971, DE572AA)
T1 sequence (looked up): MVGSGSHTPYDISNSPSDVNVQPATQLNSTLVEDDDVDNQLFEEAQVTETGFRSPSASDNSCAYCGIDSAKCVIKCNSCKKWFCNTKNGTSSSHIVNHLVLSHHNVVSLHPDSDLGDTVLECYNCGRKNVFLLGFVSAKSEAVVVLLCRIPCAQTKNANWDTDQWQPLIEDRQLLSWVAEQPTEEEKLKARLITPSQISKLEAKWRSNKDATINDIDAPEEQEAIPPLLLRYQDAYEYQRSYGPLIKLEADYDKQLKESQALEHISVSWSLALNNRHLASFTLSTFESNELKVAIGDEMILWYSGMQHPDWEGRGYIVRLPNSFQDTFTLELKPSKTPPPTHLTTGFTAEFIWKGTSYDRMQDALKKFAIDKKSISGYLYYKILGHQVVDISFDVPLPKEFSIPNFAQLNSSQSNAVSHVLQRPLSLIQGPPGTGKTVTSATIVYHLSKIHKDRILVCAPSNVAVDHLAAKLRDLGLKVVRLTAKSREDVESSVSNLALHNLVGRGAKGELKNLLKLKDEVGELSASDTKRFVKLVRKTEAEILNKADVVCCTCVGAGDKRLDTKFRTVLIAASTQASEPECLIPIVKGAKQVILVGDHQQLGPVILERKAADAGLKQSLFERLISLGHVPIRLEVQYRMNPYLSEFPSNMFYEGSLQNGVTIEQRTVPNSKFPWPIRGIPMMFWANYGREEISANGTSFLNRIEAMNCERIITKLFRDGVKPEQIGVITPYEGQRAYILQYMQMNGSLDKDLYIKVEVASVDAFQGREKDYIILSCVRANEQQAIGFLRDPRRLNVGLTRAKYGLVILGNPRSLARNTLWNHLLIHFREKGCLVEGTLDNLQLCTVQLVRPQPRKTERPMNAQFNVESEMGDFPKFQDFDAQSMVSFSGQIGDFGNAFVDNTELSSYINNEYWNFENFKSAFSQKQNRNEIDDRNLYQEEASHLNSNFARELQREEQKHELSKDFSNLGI
Assay: co-IP

fold co-precipitation relative to wild-type Upf1-GFP: > 1.5 fold
B1: Gbp2 (natural protein, UniProt P25555 1-427, looked up)
chain: MERELGMYGNDRSRSRSPVRRRLSDDRDRYDDYNDSSSNNGNGSRRQRRDRGSRFNDRYDQSYGGSRYHDDRNWPPRRGGRGRGGSRSFRGGRGGGRGRTLGPIVERDLERQFDATKRNFENSIFVRNLTFDCTPEDLKELFGTVGEVVEADIITSKGHHRGMGTVEFTKNESVQDAISKFDGALFMDRKLMVRQDNPPPEAAKEFSKKATREEIDNGFEVFIINLPYSMNWQSLKDMFKECGHVLRADVELDFNGFSRGFGSVIYPTEDEMIRAIDTFNGMEVEGRVLEVREGRFNKRKNNDRYNQRREDLEDTRGTEPGLAQDAAVHIDETAAKFTEGVNPGGDRNCFIYCSNLPFSTARSDLFDLFGPIGKINNAELKPQENGQPTGVAVVEYENLVDADFCIQKLNNYNYGGCSLQISYARRD
